From the supplement of paper PMC9112550, “Optimization of the antimicrobial peptide Bac7 by deep mutational scanning” (BMC Biology, 2022)

test system: Escherichia coli TOP10; assay: shrunken log2 fold change of peptide-encoding DNA abundance (4.5 h post-induction vs induction); higher = less antimicrobial activity (less host growth inhibition); conditions: time post-induction: 4.5 h; library: site-saturation at positions 5, 18, 19, 20
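Note: peptides expressed intracellularly from a pBAD plasmid library in pooled LB shake-flask culture, induced with 0.3% L-arabinose, DNA abundance read by NGS, three biological replicates, DESeq2 with apeglm shrinkage.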

Row | Sequence | shrunken log2 fold change
1 | RRIRGRPPRLPRPRPRPNRRPRP | 0.332
2 | RRIRLRPPRLPRPRPRPMQAPRP | -0.0495
3 | RRIRQRPPRLPRPRPRPVLWPRP | 0.193
4 | RRIRRRPPRLPRPRPRPGPHPRP | 0.437
5 | RRIRVRPPRLPRPRPRPGSRPRP | 0.177
6 | RRIRQRPPRLPRPRPRPAYEPRP | -0.00926
7 | RRIRWRPPRLPRPRPRPCASPRP | -0.0152
8 | RRIRQRPPRLPRPRPRPQRDPRP | 0.0969
9 | RRIRWRPPRLPRPRPRPVFRPRP | -0.153
10 | RRIRERPPRLPRPRPRPGFMPRP | -0.136
11 | RRIRERPPRLPRPRPRPHWAPRP | 0.225
12 | RRIRDRPPRLPRPRPRPTLEPRP | 1.06
13 | RRIRGRPPRLPRPRPRPEHLPRP | 0.494
14 | RRIRTRPPRLPRPRPRPIGFPRP | -0.0989
15 | RRIRIRPPRLPRPRPRPLYMPRP | -0.918
16 | RRIRLRPPRLPRPRPRPMCCPRP | -0.394
17 | RRIRDRPPRLPRPRPRPMQHPRP | -0.00754
18 | RRIRYRPPRLPRPRPRPGAQPRP | -0.0279
19 | RRIRVRPPRLPRPRPRPHHTPRP | -0.731
20 | RRIRPRPPRLPRPRPRPNDFPRP | -0.438
21 | RRIRGRPPRLPRPRPRPQRKPRP | 0.471
22 | RRIRNRPPRLPRPRPRPRSTPRP | -0.0419
23 | RRIRERPPRLPRPRPRPFYTPRP | -0.629
24 | RRIRPRPPRLPRPRPRPLMHPRP | -0.0913
25 | RRIRNRPPRLPRPRPRPGDRPRP | 0.0819

Row | Sequence | shrunken log2 fold change
26 | RRIRFRPPRLPRPRPRPKMFPRP | -0.323
27 | RRIRARPPRLPRPRPRPPSYPRP | 0.0336
28 | RRIRSRPPRLPRPRPRPYRKPRP | -0.901
29 | RRIRWRPPRLPRPRPRPCEYPRP | -0.379
30 | RRIRTRPPRLPRPRPRPGYMPRP | -0.297
31 | RRIRNRPPRLPRPRPRPSALPRP | -0.213
32 | RRIRRRPPRLPRPRPRPDRPPRP | 0.13
33 | RRIRCRPPRLPRPRPRPMNRPRP | -0.35
34 | RRIRFRPPRLPRPRPRPKREPRP | 0.0359
35 | RRIRQRPPRLPRPRPRPSVTPRP | -0.0462
36 | RRIRSRPPRLPRPRPRPTLTPRP | 0.206
37 | RRIRMRPPRLPRPRPRPHCEPRP | -0.0828
38 | RRIRWRPPRLPRPRPRPFQTPRP | -0.00783
39 | RRIRYRPPRLPRPRPRPICAPRP | -0.211
40 | RRIRLRPPRLPRPRPRPKSCPRP | 0.0755
41 | RRIRYRPPRLPRPRPRPGQHPRP | -0.179
42 | RRIRKRPPRLPRPRPRPEYNPRP | 0.196
43 | RRIRKRPPRLPRPRPRPHKTPRP | -0.0618
44 | RRIRGRPPRLPRPRPRPPSVPRP | 0.645
45 | RRIRNRPPRLPRPRPRPQTGPRP | -0.505
46 | RRIRERPPRLPRPRPRPCYPPRP | -0.498
47 | RRIRWRPPRLPRPRPRPHLVPRP | 0.392
48 | RRIRHRPPRLPRPRPRPFQMPRP | -0.0675
49 | RRIRGRPPRLPRPRPRPRAHPRP | 0.857
50 | RRIRERPPRLPRPRPRPSWGPRP | -0.102

Row | Sequence | shrunken log2 fold change
51 | RRIRARPPRLPRPRPRPDVRPRP | 0.0106
52 | RRIRLRPPRLPRPRPRPYLAPRP | -0.756
53 | RRIRMRPPRLPRPRPRPWMTPRP | 0.0698
54 | RRIRPRPPRLPRPRPRPLMGPRP | -0.0395
55 | RRIRLRPPRLPRPRPRPFSYPRP | -0.747
56 | RRIRKRPPRLPRPRPRPTQKPRP | 0.0634
57 | RRIRQRPPRLPRPRPRPCDMPRP | -0.129
58 | RRIRGRPPRLPRPRPRPECMPRP | 1.49
59 | RRIRVRPPRLPRPRPRPGVHPRP | 0.107
60 | RRIRIRPPRLPRPRPRPFEPPRP | -0.204
61 | RRIRVRPPRLPRPRPRPSVCPRP | 0.0223
62 | RRIRNRPPRLPRPRPRPQTYPRP | -0.375
63 | RRIRERPPRLPRPRPRPRFGPRP | 0.152
64 | RRIRLRPPRLPRPRPRPQGPPRP | -0.191
65 | RRIRCRPPRLPRPRPRPHEIPRP | 0.322
66 | RRIRFRPPRLPRPRPRPATEPRP | 0.0616
67 | RRIRIRPPRLPRPRPRPKFHPRP | -0.375
68 | RRIRHRPPRLPRPRPRPAEMPRP | -0.01
69 | RRIRQRPPRLPRPRPRPQRRPRP | 0.0498
70 | RRIRLRPPRLPRPRPRPNEAPRP | 0.278
71 | RRIRMRPPRLPRPRPRPYGFPRP | -0.00952
72 | RRIRCRPPRLPRPRPRPVWCPRP | -0.269
73 | RRIRERPPRLPRPRPRPTKFPRP | -0.364
74 | RRIRMRPPRLPRPRPRPKGVPRP | 1.1
75 | RRIRWRPPRLPRPRPRPHKRPRP | 0.0239

Row | Sequence | shrunken log2 fold change
76 | RRIRNRPPRLPRPRPRPDTYPRP | -0.0291
77 | RRIRWRPPRLPRPRPRPVNYPRP | -0.122
78 | RRIRGRPPRLPRPRPRPWCTPRP | -0.0466
79 | RRIRCRPPRLPRPRPRPTHTPRP | 0.388
80 | RRIRTRPPRLPRPRPRPKVFPRP | -0.0334
81 | RRIRSRPPRLPRPRPRPWCRPRP | -0.398
82 | RRIRSRPPRLPRPRPRPRSGPRP | 0.237
83 | RRIRGRPPRLPRPRPRPYYNPRP | -0.48
84 | RRIRNRPPRLPRPRPRPCREPRP | -0.109
85 | RRIRARPPRLPRPRPRPTQMPRP | 0.563
86 | RRIRCRPPRLPRPRPRPDSNPRP | -0.488
87 | RRIRSRPPRLPRPRPRPWNRPRP | -0.125
88 | RRIRQRPPRLPRPRPRPKFAPRP | 0.0489
89 | RRIRIRPPRLPRPRPRPHSNPRP | -0.502
90 | RRIRGRPPRLPRPRPRPTPGPRP | 0.971
91 | RRIRWRPPRLPRPRPRPLYFPRP | -0.613
92 | RRIRERPPRLPRPRPRPAINPRP | -0.257
93 | RRIRGRPPRLPRPRPRPMDYPRP | 0.0324
94 | RRIRKRPPRLPRPRPRPAISPRP | 0.214
95 | RRIRLRPPRLPRPRPRPYPRPRP | -0.0678
96 | RRIRARPPRLPRPRPRPFRTPRP | 0.12
97 | RRIRLRPPRLPRPRPRPAGLPRP | 0.102
98 | RRIRCRPPRLPRPRPRPYIMPRP | -1.48
99 | RRIRARPPRLPRPRPRPGQPPRP | 0.00358
100 | RRIRMRPPRLPRPRPRPDSLPRP | -0.0169

Row | Sequence | shrunken log2 fold change
101 | RRIRFRPPRLPRPRPRPQIDPRP | 0.0185
102 | RRIRLRPPRLPRPRPRPMVCPRP | -0.0634
103 | RRIRHRPPRLPRPRPRPVIFPRP | -0.395
104 | RRIRLRPPRLPRPRPRPRCNPRP | -0.534
105 | RRIRGRPPRLPRPRPRPMCPPRP | 0.0883
106 | RRIRFRPPRLPRPRPRPTRPPRP | 0.776
107 | RRIRFRPPRLPRPRPRPHIMPRP | -0.709
108 | RRIRNRPPRLPRPRPRPSVYPRP | -0.172
109 | RRIRFRPPRLPRPRPRPHCIPRP | -0.457
110 | RRIRKRPPRLPRPRPRPGHSPRP | -0.0124
111 | RRIRQRPPRLPRPRPRPCRKPRP | 0.0642
112 | RRIRDRPPRLPRPRPRPASHPRP | 0.0378
113 | RRIRYRPPRLPRPRPRPGDYPRP | 0.065
114 | RRIRNRPPRLPRPRPRPDVAPRP | 0.285
115 | RRIRYRPPRLPRPRPRPKRQPRP | 0.00924
116 | RRIRWRPPRLPRPRPRPFARPRP | 0.188
117 | RRIRSRPPRLPRPRPRPDAWPRP | 0.545
118 | RRIRVRPPRLPRPRPRPLVVPRP | -0.21
119 | RRIRKRPPRLPRPRPRPKKMPRP | 0.718
120 | RRIRNRPPRLPRPRPRPVHEPRP | -0.00149
121 | RRIRHRPPRLPRPRPRPYRVPRP | -0.0718
122 | RRIRRRPPRLPRPRPRPVCAPRP | 0.547
123 | RRIRGRPPRLPRPRPRPTRVPRP | 0.748
124 | RRIRFRPPRLPRPRPRPTPWPRP | 0.421
125 | RRIRCRPPRLPRPRPRPNMIPRP | -0.829

Row | Sequence | shrunken log2 fold change
126 | RRIRSRPPRLPRPRPRPNKMPRP | -0.05
127 | RRIRRRPPRLPRPRPRPCIFPRP | -0.0526
128 | RRIRIRPPRLPRPRPRPYMTPRP | -1.6
129 | RRIRYRPPRLPRPRPRPAMYPRP | -1.14
130 | RRIRKRPPRLPRPRPRPWAGPRP | 0.115
131 | RRIRGRPPRLPRPRPRPVPCPRP | 0.463
132 | RRIRVRPPRLPRPRPRPTNIPRP | -0.783
133 | RRIRNRPPRLPRPRPRPRYLPRP | -0.547
134 | RRIRRRPPRLPRPRPRPVHHPRP | -0.468
135 | RRIRQRPPRLPRPRPRPDNLPRP | -0.348
136 | RRIRFRPPRLPRPRPRPKKQPRP | 0.0157
137 | RRIRNRPPRLPRPRPRPVVPPRP | 0.0751
138 | RRIRGRPPRLPRPRPRPWPVPRP | 0.674
139 | RRIRARPPRLPRPRPRPGLIPRP | 0.0698
140 | RRIRDRPPRLPRPRPRPFMLPRP | -0.342
141 | RRIRVRPPRLPRPRPRPGECPRP | -0.145
142 | RRIRQRPPRLPRPRPRPDERPRP | -0.00664
143 | RRIRDRPPRLPRPRPRPGIDPRP | -0.245
144 | RRIRARPPRLPRPRPRPGNCPRP | 0.061
145 | RRIRERPPRLPRPRPRPAQMPRP | 0.392
146 | RRIRSRPPRLPRPRPRPHHGPRP | -0.0421
147 | RRIRTRPPRLPRPRPRPCNEPRP | -0.173
148 | RRIRYRPPRLPRPRPRPLCHPRP | -1.18
149 | RRIRKRPPRLPRPRPRPQQVPRP | -0.0532
150 | RRIRGRPPRLPRPRPRPMIWPRP | 0.589
